Where no end group is shown, it is not given here.
How the values were obtained:
[1] = molecular target: V8 protease (Endo Gluc) (Staphylococcus aureus, UniProt P0C1U8); test: Protease digestion with V8 protease; format: physicochemical; conditions: pH 5.80
Experimental: (§1) Nisin is comparatively resistant to proteolysis by trypsin under the optimized conditions described above. To determine whether nisin is also resistant to other proteolytic enzymes under similar conditions, partially purified nisin was exposed to pepsin, thrombin, V8 protease (Endo Gluc), subtilisin, papain, thermolysin, or clostripain at pH 5.80. Pepsin exposure was also performed at pH 3.50. […] Pepsin at pH 5.80 and thrombin appeared ineffective against the impurities as well.
(§2) Digestion experiments using pepsin (EC3.4.23.1), thrombin (EC3.4.21.5), V8 protease (EC3.4.21.19), subtilisin (EC3.4.21.62), papain (EC3.4.22.2), thermolysin (EC3.4.24.27), and clostripain (EC3.4.22.8) were performed essentially as described for trypsin and at pH 5.80. Pepsin digestion was also performed at pH 3.50. For trypsin digestions using trypsin linked to a solid matrix (e.g. insoluble trypsin), 1.6 liters of partially purified nisin was prepared at 9.5 mg/ml in 10 mM Tris HCl and pH 5.50. Following the addition of 1.6 ml of TPCK-treated trypsin bound to beaded agarose (Sigma Chemical Company), the reaction mixture was incubated at 30° C. for 6 hours with frequent agitation. Insoluble trypsin was removed by centrifugation at approximately 4000×g for 7 minutes. The resultant supernatant containing nisin was prepared for HPLC analysis.

[2] = tested on: pepsin; test: Protease digestion with pepsin; format: physicochemical
Experimental: as §1, §2

[3] = molecular target: subtilisin (Bacillus licheniformis, UniProt P00780); test: Protease digestion with subtilisin; format: physicochemical; conditions: pH 5.80
Experimental: as §1, §2

[4] = tested on: trypsin; test: Tryptic digestion of nisin at pH 7.0, SDS-PAGE and HPLC; format: physicochemical; conditions: pH 7.0, nisin to trypsin about 10:1 (w/w), 30° C., after 96 hr
Experimental: Nisin has two internal lysine residues that are potential targets of the proteolytic enzyme trypsin. To determine whether nisin could be digested by trypsin, a digestion reaction mixture was prepared where a nisin preparation, partially purified nisin from a fermentor run, was exposed to trypsin under conditions optimal for trypsin activity. These conditions included a reaction pH of 7.0 and a nisin to trypsin ratio of about 10:1 (w/w). Samples were incubated at 30° C. and aliqoutes were removed for analysis every 24 hr, beginning at time zero. […] After 96 hr of treatment, more than 90% of nisin was degraded.
Tryptic digestion of nisin (50 mg) was carried out in 50 ml of a buffer consisting of 25mM sodium acetate, 6 mM Tris acetate, 5 mM CaCl2, and pH 7.0. One ml of USP grade trypsin (5mg/ml) was added followed by incubation at 30° C. Thereafter, 500 μl aliqouts of trypsin were added at times 24, 48, 72, and 96 hours. At each time point in the experiment, 2 ml aliquots were removed for further analysis, of which […] was immediately plated on blood agar plates for determination of contamination. The remaining 1.8 ml was stored at −20° C. until the end of experiment for SDS-PAGE and HPLC analysis.

[5] = molecular target: thrombin (Homo sapiens, UniProt P00734); test: Protease digestion with thrombin; format: physicochemical; conditions: pH 5.80
Experimental: as §1, §2

[6] = molecular target: T1, TPCK treated insoluble trypsin (Bos taurus, UniProt P00760); test: Insoluble trypsin (bound to beaded agarose) digestion, HPLC; format: physicochemical; conditions: 9.55 mg/ml, 1.6 ml insoluble trypsin on agarose, 6 hr, 30° C., trypsin removed by centrifugation
T1 construct: purchased Sigma Chemical Company
T1 sequence (P00760 24-246): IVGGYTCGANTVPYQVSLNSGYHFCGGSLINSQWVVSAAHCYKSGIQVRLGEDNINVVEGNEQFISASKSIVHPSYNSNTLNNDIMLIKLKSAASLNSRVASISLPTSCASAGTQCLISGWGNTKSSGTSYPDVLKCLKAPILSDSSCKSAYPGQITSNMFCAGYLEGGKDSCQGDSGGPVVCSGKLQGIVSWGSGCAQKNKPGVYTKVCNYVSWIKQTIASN
Experimental: To determine whether insoluble trypsin treatment of nisin preparations was also effective in digestion of impurities, but not nisin itself, 1.6 liters of partially purified nisin prepared at 9.55 mg/ml was treated with 1.6 ml of TPCK treated insoluble trypsin bound to beaded agarose. After 6 hr of incubation at 30° C., and following removal of insoluble trypsin by centrifugation, the overall nisin recovery was about 90%.
as §2

[7] = tested on: trypsin; test: Soluble trypsin digestion at low pH and low trypsin to nisin ratio, HPLC; format: physicochemical; conditions: below pH 5.50, nisin 11 mg/ml, trypsin 27.5 μg/ml (400:1 w/w), overnight, room temperature
Experimental: Peptide analysis has identified over 40 peptides that co-purify with nisin. All of these peptides have been identified as being products of Lactococcus fermentation. Since it was determined that nisin, at neutral to slightly alkaline pH and high trypsin to nisin ratios, is subject to proteolysis by trypsin, conditions were altered in an attempt to identify conditions under which trypsin would not degrade nisin but would degrade the peptide impurities in the nisin sample. Reaction mixtures containing nisin preparations, at a concentration of 11 mg/ml, and USP grade trypsin at a concentration of 27.5 μg/ml, were incubated overnight at room temperature (400:1 w/w). The pH of the mixtures ranged from 5.25 to 6.5.
To further optimize the conditions for removal of peptide impurities from nisin preparations by tryptic digestion, two liters of partially purified nisin was prepared at 4.55 mg/ml and incubated with 25 mg of USP grade trypsin for 16 hrs at 30° C. in 10 mM citric acid, pH 5.80. […] Moreover, subsequent removal of trypsin using a molecular weight cut off membrane yielded a recovery of 87.5% nisin and 0.38% trypsin.
For treatment of nisin with soluble trypsin, 2 liters of partially purified nisin from a fermentation product was prepared at 4.55 mg/ml in 10 mM citric acid buffer and 5 mM CaCl2. […] Nisin recovery and purity was determined by SDS-PAGE and HPLC. […]

[8] = molecular target: T2, clostripain (Hathewaya histolytica, UniProt P09870); test: Protease digestion with clostripain; format: physicochemical; conditions: pH 5.80
T2 sequence (P09870 whole entry, looked up): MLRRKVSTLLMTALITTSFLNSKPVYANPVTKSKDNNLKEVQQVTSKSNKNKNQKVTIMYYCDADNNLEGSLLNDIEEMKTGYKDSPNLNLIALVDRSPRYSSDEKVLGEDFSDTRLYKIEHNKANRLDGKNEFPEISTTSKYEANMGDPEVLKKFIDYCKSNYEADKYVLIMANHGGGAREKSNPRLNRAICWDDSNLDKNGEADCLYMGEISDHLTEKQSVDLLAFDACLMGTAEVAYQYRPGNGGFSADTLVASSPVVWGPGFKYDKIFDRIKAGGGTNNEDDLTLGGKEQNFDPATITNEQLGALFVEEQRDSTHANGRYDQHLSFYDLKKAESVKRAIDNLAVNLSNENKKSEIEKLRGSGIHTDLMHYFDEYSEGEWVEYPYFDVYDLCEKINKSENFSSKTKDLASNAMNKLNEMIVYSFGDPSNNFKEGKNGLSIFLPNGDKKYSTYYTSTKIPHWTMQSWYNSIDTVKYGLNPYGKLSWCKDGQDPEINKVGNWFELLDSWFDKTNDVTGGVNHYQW
Experimental: as §1, §2

[9] = molecular target: thermolysin (Bacillus thermoproteolyticus, UniProt P00800); test: Protease digestion with thermolysin; format: physicochemical; conditions: pH 5.80
Experimental: as §1, §2

[10] = molecular target: T3, papain (Carica papaya, UniProt P00784); test: Protease digestion with papain; format: physicochemical; conditions: pH 5.80
T3 sequence (P00784 134-345): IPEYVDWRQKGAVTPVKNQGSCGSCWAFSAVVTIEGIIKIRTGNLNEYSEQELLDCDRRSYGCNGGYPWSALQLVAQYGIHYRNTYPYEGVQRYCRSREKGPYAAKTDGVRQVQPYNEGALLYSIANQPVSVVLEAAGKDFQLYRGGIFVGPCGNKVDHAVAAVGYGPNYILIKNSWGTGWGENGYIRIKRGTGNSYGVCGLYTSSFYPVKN
Experimental: as §1, §2

[11] = tested on: non-mastitic cows; test: Mammary infusion, somatic cell count of quarter milk; format: in vivo
Experimental: Bovine intra-mammary infusion of impure nisin stimulates the production of high levels of somatic cells in milk as part of an inflammatory reaction.
Non-mastitic cows were treated with an infusion of vehicle, untreated, and trypsin-treated nisin (30 mg/10 ml) in the quarter after the 4th, 5th, and 6th milkings. The somatic cell count of the milk was recorded before, during, and after milking. High somatic cell counts were indicative of an inflammatory reaction. Statistical analysis was carried out using two sided t-Test comparisons with unequal variance.

[12] = tested on: mastitic isolate of Streptococcus agalactiae (strain #20); test: Antibacterial 96 well plate assay; format: cell-based; conditions: bacterial growth read as absorbance
Experimental: To confirm that the biological activity of nisin is also unaltered, in vitro bactericidal activity assay was performed. Trypsin-treated nisin was analyzed for antibacterial activity against a mastitic isolate of Streptococcus agalactiae (strain #20) in a 96 well plate assay and bacterial growth was read as absorbance readings on an ELISA reader.
Nisin activity was determined using an antibacterial assay against a mastitic isolate of Streptococcus agalactiae (IC 20) in a 96 well plate assay. Test samples were serially diluted into M17 10% lactose medium and then mixed with an equal volume of 10^4 cfu/ml. After 66 hr of incubation at room temperature, the plates were read on an ELISA reader at 450 nm. Wells containing bacterial growth gave high absorbance readings. The data was analyzed using a four-parameter curve-fitting software.

thermolysin, sequence (P00800 233-548): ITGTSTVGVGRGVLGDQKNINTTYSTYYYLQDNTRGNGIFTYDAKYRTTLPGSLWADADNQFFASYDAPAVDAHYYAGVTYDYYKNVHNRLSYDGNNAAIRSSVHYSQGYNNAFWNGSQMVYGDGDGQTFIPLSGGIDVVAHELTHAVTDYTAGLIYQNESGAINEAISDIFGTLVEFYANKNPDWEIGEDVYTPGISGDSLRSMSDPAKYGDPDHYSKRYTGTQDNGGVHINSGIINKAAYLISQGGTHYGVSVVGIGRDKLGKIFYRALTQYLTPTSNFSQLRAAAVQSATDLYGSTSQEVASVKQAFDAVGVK
V8 protease (Endo Gluc), sequence (P0C1U8 69-336): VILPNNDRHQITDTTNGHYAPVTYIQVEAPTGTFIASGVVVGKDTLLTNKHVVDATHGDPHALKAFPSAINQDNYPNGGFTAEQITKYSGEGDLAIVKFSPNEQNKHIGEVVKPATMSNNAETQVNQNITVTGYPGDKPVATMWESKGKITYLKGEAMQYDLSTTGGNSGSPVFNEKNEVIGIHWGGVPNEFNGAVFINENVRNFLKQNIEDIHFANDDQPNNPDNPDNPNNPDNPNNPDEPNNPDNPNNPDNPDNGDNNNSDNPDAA
subtilisin, sequence (P00780 106-379): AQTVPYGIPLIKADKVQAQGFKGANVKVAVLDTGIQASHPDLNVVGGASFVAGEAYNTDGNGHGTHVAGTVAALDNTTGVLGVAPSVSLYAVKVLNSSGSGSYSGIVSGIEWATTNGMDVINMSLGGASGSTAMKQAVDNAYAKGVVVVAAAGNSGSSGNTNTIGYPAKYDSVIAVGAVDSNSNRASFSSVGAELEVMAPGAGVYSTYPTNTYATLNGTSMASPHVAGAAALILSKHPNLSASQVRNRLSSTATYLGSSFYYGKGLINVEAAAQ

## nisin (ITSISLCTPGCKTGALMGCNMKTATCHCSIHVSK; cysteine pairing not given here; also: lantibiotic nisin-A, modified residues not placed; UniProt P13068 24-57, looked up) [lysine-rich lantibiotic, polypeptide antimicrobial agent with lanthionine and β-methyl-lanthionine residues, used as food preservative]
[1]
  proteolytic digestion of nisin by V8 protease: resistant
[2]; pH 3.50
  proteolytic digestion of nisin by pepsin: did not digest nisin
[2]; pH 5.80
  proteolytic digestion of nisin by pepsin: resistant
[3]
  proteolytic digestion of nisin by subtilisin: resistant
[4]
  nisin degraded by trypsin: more than 90%
[5]
  proteolytic digestion of nisin by thrombin: resistant
[6]
  overall nisin recovery after insoluble trypsin incubation: about 90%
[7]
  hydrolysis of nisin by trypsin: minimal hydrolysis
[8]
  proteolytic digestion of nisin by clostripain: resistant
[9]
  proteolytic digestion of nisin by thermolysin: resistant
[10]
  proteolytic digestion of nisin by papain: resistant

## trypsin/nisin: nisin preparation purified by selective trypsin digestion of peptide impurities (ITSISLCTPGCKTGALMGCNMKTATCHCSIHVSK; also: lantibiotic nisin-A: lanthionine thioether rings, Dha/Dhb, positions not given here; UniProt P13068 24-57, looked up)
[11]; intra-mammary infusion of 30 mg, non-mastitic cows
  somatic cell count of milk from treated quarters (inflammatory reaction), summary in words: much lower and is not statistically different from quarters treated with buffer alone
[11]; milking 1 (before treatments; infusions 30 mg/10 ml given after 4th, 5th, 6th milkings)
  Somatic Cell Count of Quarter Milk, mean of group: 10 X1000
[11]; milking 2 (before treatments)
  Somatic Cell Count of Quarter Milk, mean of group: 22 X1000
[11]; milking 3 (before treatments)
  Somatic Cell Count of Quarter Milk, mean of group: 23 X1000
[11]; milking 4 (before first treatment)
  Somatic Cell Count of Quarter Milk, mean of group: 21 X1000
[11]; milking 5, infusions 30 mg/10 ml after 4th, 5th, 6th milkings
  Somatic Cell Count of Quarter Milk, mean of group: 54 X1000
[11]; milking 6
  Somatic Cell Count of Quarter Milk, mean of group: 187 X1000
[11]; milking 7
  Somatic Cell Count of Quarter Milk, mean of group: 300 X1000
[11]; milking 8
  Somatic Cell Count of Quarter Milk, mean of group: 148 X1000
[11]; milking 9
  Somatic Cell Count of Quarter Milk, mean of group: 106 X1000
[11]; milking 10
  Somatic Cell Count of Quarter Milk, mean of group: 82 X1000
[11]; milking 11
  Somatic Cell Count of Quarter Milk, mean of group: 103 X1000
[11]; milking 12
  Somatic Cell Count of Quarter Milk, mean of group: 81 X1000
[11]; milking 13
  Somatic Cell Count of Quarter Milk, mean of group: 60 X1000
[11]; milking 14
  Somatic Cell Count of Quarter Milk, mean of group: 36 X1000
[11]; milking 15
  Somatic Cell Count of Quarter Milk, mean of group: 53 X1000
[11]; milking 16
  Somatic Cell Count of Quarter Milk, mean of group: 37 X1000
[11]; milking 17
  Somatic Cell Count of Quarter Milk, mean of group: 40 X1000
[11]; milking 18
  Somatic Cell Count of Quarter Milk, mean of group: 41 X1000
[12]
  antimicrobial activity compared with control, untreated nisin: not substantially different

Reference: patent US20040072333A1, “Method of purifying lantibiotics” (ImmuCell Corporation, priority 2002, published 2004)
